From patent US20240002547A1, “T[…]-TARGETING CONSTRUCTS AND USES THEREOF” (AEBI LTD., priority 2016, published 2024)

Target: human EGFR on A431 and MCF-7 cells (human), P00533
Test: cell-based or functional assay

IC50 of inhibition of EGFR autophosphorylation in A431 cells: 2000 nM
Normalized Percent of EGFR autophosphorylation inhibition: 99.4%
Binder: CHPGDKQEDPNCLQADK (modifications not checked) [E13.3]
